Assay results published in publication PMC11931990, “Interaction between bacterial phytochromes Agp1 and Agp2 of Agrobacterium fabrum by fluorescence resonance energy transfer and docking studies” (Febs Letters, 2025).

What was measured:
Agp2 = molecular target: T1, Agp2 (Agrobacterium fabrum, UniProt A9CI81); experiment: UV/vis absorbance after chromophore assembly and desalting; assay type: binding; conditions: covalent (Cys13); threefold molar excess BV, 2 h, RT, pH 7.8, 1 mM TCEP; Atto-495 labelled afterwards
T1 construct: gene Atu2165; full length (PAS-GAF-PHY-histidine kinase-response regulator), C-terminal His6, E. coli DH5-alpha, pAg2 (pET21b-based), purified apoprotein, homodimer
T1 sequence (A9CI81 1-850): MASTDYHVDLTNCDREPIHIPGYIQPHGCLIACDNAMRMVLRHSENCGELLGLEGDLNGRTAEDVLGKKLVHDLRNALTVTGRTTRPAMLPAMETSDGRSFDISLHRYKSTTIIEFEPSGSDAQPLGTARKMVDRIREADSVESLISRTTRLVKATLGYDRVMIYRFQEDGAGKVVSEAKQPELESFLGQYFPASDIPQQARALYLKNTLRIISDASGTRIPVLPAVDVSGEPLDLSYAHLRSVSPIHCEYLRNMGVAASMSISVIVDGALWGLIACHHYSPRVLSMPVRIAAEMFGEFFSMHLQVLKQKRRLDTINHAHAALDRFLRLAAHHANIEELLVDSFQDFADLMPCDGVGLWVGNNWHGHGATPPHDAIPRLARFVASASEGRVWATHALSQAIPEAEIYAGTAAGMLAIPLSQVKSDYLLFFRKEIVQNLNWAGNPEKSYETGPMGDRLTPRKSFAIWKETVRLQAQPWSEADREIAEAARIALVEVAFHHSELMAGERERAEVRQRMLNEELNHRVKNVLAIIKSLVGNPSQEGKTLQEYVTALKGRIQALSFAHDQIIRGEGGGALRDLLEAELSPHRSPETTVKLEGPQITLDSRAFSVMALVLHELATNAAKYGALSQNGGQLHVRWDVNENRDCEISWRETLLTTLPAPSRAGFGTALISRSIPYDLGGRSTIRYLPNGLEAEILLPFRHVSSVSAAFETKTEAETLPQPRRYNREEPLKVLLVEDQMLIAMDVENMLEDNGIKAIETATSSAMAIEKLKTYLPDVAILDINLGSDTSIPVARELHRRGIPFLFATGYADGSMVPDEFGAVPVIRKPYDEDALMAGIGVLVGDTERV

Agp2-PCM = molecular target: T2, Agp2-PCM (Agrobacterium fabrum, UniProt A9CI81); experiment: as above; assay type: binding; conditions: covalent (Cys13); threefold molar excess BV, 2 h, RT, pH 7.8, 1 mM TCEP; Atto-495 labelled afterwards
T2 construct: gene Atu2165; photosensory chromophore module (PAS, GAF, PHY)
T2 sequence (A9CI81 1-501): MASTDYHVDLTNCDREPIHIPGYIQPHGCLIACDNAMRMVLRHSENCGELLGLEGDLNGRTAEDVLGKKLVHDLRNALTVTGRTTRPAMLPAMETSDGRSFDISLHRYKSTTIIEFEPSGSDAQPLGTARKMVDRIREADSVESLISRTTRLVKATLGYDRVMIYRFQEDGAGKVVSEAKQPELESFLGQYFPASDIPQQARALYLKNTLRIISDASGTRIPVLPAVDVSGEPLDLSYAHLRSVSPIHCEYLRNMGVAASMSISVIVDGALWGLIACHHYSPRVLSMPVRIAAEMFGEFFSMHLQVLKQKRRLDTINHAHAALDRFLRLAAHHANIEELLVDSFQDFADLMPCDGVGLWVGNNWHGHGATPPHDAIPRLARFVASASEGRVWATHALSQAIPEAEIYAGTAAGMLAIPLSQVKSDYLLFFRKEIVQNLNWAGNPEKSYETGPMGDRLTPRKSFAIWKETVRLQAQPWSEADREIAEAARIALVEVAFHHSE
From the text: UV/vis absorbance after chromophore assembly and desalting on Agp2-PCM

[1] = molecular target: Agp2, full length wild-type A. fabrum phytochrome, labeled with Atto-495 (Agrobacterium fabrum); experiment: FRET or BRET
[2] = molecular target: Agp2-PCM, photosensory chromophore module of Agp2, labeled with Atto-495 (Agrobacterium fabrum); experiment: FRET or BRET

C=CC1=C(C)/C(=C/C2=NC(=C\c3[nH]c(/C=C4\NC(=O)C(C)=C4C=C)c(C)c3CCC(=O)O)/C(CCC(=O)O)=C2C)NC1=O [Biliverdin]
Agp2 (Agp2): 0.70 ± 0.04 mol/mol
Agp2 PCM (Agp2-PCM): 0.98 ± 0.01 mol/mol

Agp1 A362C, full-length A. fabrum phytochrome Agp1 mutant labeled with Atto-565 (natural protein)
E FRET (FRET transfer efficiency) [1]: 0.1

Agp1 K517C, full-length A. fabrum phytochrome Agp1 mutant labeled with Atto-565 (natural protein)
E FRET (FRET transfer efficiency) [2]: 0.14
E FRET (FRET transfer efficiency) [1]: 0.15

Agp1 K554C, full-length A. fabrum phytochrome Agp1 mutant labeled with Atto-565 (natural protein)
E FRET (FRET transfer efficiency) [1]: 0.28

Agp1 R535C, full-length A. fabrum phytochrome Agp1 mutant labeled with Atto-565 (natural protein)
E FRET (FRET transfer efficiency) [1]: 0.21

Agp1 R603C, full-length A. fabrum phytochrome Agp1 mutant labeled with Atto-565 (natural protein)
E FRET (FRET transfer efficiency) [1]: 0.2

Agp1 S122C, full-length A. fabrum phytochrome Agp1 mutant labeled with Atto-565 (natural protein)
E FRET (FRET transfer efficiency) [1]: 0.09
